Measurements published in patent US20250034266A1 (ZAI LAB SHANGHAI, published 2025).
Where two headings read alike, the source gives them in different places.

Key:
[1] = biological target: T1, human CCR8 (human, UniProt P51685 1-355); assay: cell-based or functional assay
T1 sequence (P51685 whole entry): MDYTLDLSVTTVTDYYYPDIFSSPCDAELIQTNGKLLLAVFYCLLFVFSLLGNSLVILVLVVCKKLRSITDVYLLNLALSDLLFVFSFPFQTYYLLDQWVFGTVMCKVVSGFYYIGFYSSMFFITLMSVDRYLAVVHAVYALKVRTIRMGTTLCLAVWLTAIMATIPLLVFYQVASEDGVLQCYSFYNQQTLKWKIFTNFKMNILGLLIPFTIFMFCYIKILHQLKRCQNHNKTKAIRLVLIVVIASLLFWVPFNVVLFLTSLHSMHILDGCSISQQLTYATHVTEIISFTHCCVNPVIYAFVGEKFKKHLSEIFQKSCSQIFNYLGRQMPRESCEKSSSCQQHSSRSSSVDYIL

[2] = biological target: T1, human CCR8; assay: flow cytometry on TALL-1 cells (endogenous CCR8)
Protocol: Briefly, a total of 5×10⁴ cells for each well were seeded in 96-well plates and washed with FACS buffer (DPBS containing 1.5% FBS) for once. Antibodies were prepared with 3-fold serial dilution ranging from 100 nM to 0.00508 nM in FACS buffer. Cells were incubated with 50 μL of diluted antibodies at 4° C. for 40 minutes. After primary antibody incubation, cells were washed twice by FACS buffer. Then, cells were stained by Alexa Flu647-labeled anti-human IgG Fc secondary antibody (Jackson ImmunoResearch, #109606170) at 1:500 dilution in FACS buffer for 40 minutes at 4° C. After 2 times wash with FACS buffer, flow cytometry (BD FACS Celesta) was performed to measure the binding affinities of antibodies.

[3] = biological target: T1, human CCR8; assay: cell-based or functional assay; remark: listed apart in the source
[4] = biological target: human CCR8 tagged with ProLink (PK) (human, UniProt P51685 1-355); assay: cell-based or functional assay
Chain of human CCR8 tagged with ProLink (PK) (P51685 whole entry): as above

[5] = biological target: T1, human CCR8; assay: cell-based or functional assay; remark: listed apart in the source
[6] = biological target: T1, human CCR8; assay: cell-based or functional assay; remark: listed apart in the source
[7] = biological target: T2, human CCR8 (human, UniProt P51685 1-355); assay: cell-based or functional assay; remark: listed apart in the source
T2 sequence (P51685 whole entry): as above

[8] = biological target: T2, human CCR8; assay: FACS on CHO-K1-human CCR8 cells
[9] = biological target: T2, human CCR8; assay: FACS, competition with CCL1 on CHO-K1-human CCR8 cells
[10] = biological target: T3, cynomolgus CCR8 (cynomolgus, UniProt G7NYJ2 1-355); assay: FACS on HEK293-cynomolgus CCR8 cells
T3 construct: whole, on cells
T3 sequence (G7NYJ2 entry or part of it): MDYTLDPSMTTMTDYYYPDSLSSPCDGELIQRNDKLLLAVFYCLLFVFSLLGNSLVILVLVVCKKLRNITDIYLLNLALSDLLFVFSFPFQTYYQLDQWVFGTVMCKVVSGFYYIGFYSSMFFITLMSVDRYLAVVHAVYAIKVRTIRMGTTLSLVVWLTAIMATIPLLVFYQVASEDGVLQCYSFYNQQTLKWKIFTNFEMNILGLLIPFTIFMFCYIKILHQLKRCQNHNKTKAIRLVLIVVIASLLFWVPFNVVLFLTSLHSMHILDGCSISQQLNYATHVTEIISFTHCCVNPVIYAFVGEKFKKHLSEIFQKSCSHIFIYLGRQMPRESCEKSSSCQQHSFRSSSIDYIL

[11] = biological target: T2, human CCR8; assay: FACS on HuT78 cells (endogenous human CCR8)
Protocol: HuT78 cells expressing endogenous human CCR8 were used for determining binding affinities of selected affinity matured anti-CCR8 antibodies. Briefly, a total of […] cells for each well were seeded in 96-well plates and washed with FACS buffer (DPBS containing […]) for once. […] Cells were incubated with 50 μL of diluted antibodies at 4° C. for 1 hour. After primary antibody incubation, cells were washed for 3 times by FACS buffer. Then, cells were stained by Alexa Fbu647 labeled anti-human IgG secondary antibody (Jackson ImmunoResearch, #109606170) at 1:600 dilution in FACS buffer for 0.5 hour at 4° C. After 3 times washed, flow cytometry (Sartourius, iQue3) was performed to measure the binding affinities of antibodies. […]

[12] = biological target: T2, human CCR8; assay: cell-based or functional assay; remark: listed apart in the source
[13] = biological target: T2, human CCR8; assay: cell-based or functional assay; remark: listed apart in the source

| Binder | EC50, ADCC with human PBMCs (LDH release), target TALL-1 cells [1] [pM] | EC50 [2] [pM] | EC50, ADCC reporter, F variant CD16a/NFAT-Jurkat, target CHO-K1-human CCR8 cells [3] [pM] | EC50, ADCC reporter, F variant CD16a/NFAT-Jurkat, target HuT78 cells [3] [pM] | EC50, ADCC reporter, V variant CD16a/NFAT-Jurkat, target CHO-K1-human CCR8 cells [3] [pM] | EC50, ADCC reporter, V variant CD16a/NFAT-Jurkat, target HuT78 cells [3] [pM] | Max (RLU), ADCC reporter, F variant CD16a/NFAT-Jurkat, target CHO-K1-human CCR8 cells [3] [RLU] | Max (RLU), ADCC reporter, F variant CD16a/NFAT-Jurkat, target HuT78 cells [3] [RLU] | Max (RLU), ADCC reporter, V variant CD16a/NFAT-Jurkat, target CHO-K1-human CCR8 cells [3] [RLU] | Max (RLU), ADCC reporter, V variant CD16a/NFAT-Jurkat, target HuT78 cells [3] [RLU] | EC50, ADCC with human PBMCs, target CHO-K1-human CCR8 cells [5] [pM] | Max specific lysis (%), ADCC with human PBMCs, target CHO-K1-human CCR8 cells [5] [%] | further results |
| --- | --- | --- | --- | --- | --- | --- | --- | --- | --- | --- | --- | --- | --- |
| Hu149-11G1m (antibody, human IgG1, also called Hu149-11G1m (ADCC enhanced variant with L235V/F243L/R292P/Y300L/P396L Fc mutations)) heavy: EVQLVESGGGLVQPGGSLKLSCAASGFTFNTYAMNWVRQASGKGLEWVGRIRSKSNFYATAYAASVKGRFTISRDDSKNTAYLQMNSLKTEDTAVYYCTRGREYGSSYAMDYWGQGTLVTVSSASTKGPSVFPLAPSSKSTSGGTAALGCLVKDYFPEPVTVSWNSGALTSGVHTFPAVLQSSGLYSLSSVVTVPSSSLGTQTYICNVNHKPSNTKVDKKVEPKSCDKTHTCPPCPAPELVGGPSVFLLPPKPKDTLMISRTPEVTCVVVDVSHEDPEVKFNWYVDGVEVHNAKTKPPEEQYNSTLRVVSVLTVLHQDWLNGKEYKCKVSNKALPAPIEKTISKAKGQPREPQVYTLPPSRDELTKNQVSLTCLVKGFYPSDIAVEWESNGQPENNYKTTPLVLDSDGSFFLYSKLTVDKSRWQQGNVFSCSVMHEALHNHYTQKSLSLSPGK VL: DIVMTQSPLSLPVTPGEPASISCRSSKSLLHSNANTYLYWFLQKPGQSPQLLIYRMSNLASGVPDRFSGSGSGTDFTLKISRVEAEDVGVYYCMQHLEYPLTFGGGTKVELK | 0.682 | 328 | 5.6 | 16.4 | 7.25 | 20.3 | 8.28e+06 | 1.59e+07 | 3.93e+06 | 8.7e+06 | 0.085 | 46.6 | IC50, inhibition of CCL1 induced β-Arrestin recruitment, CHO-K1-human CCR8 β-Arrestin cells [4]: 2090 pM |
| Hu149-11G1 (antibody, human IgG1, also called Hu149-11G1 (wild type variant)) heavy: not shown VL: DIVMTQSPLSLPVTPGEPASISCRSSKSLLHSNANTYLYWFLQKPGQSPQLLIYRMSNLASGVPDRFSGSGSGTDFTLKISRVEAEDVGVYYCMQHLEYPLTFGGGTKVELK | 12.1 | 315 | 58.6 | 402 | 39.1 | 586 | 4.71e+06 | 4.07e+06 | 2.03e+06 | 3.89e+06 | 13.9 | 52.5 | EC50, ADCC reporter, 158F CD16a/NFAT-Jurkat, target TALL-1 cells [6]: 120 pM; EC50, ADCC reporter, 158V CD16a/NFAT-Jurkat, target TALL-1 cells [6]: 65.8 pM |
| Hu149-12G1m (antibody, human IgG1) heavy: EVQLVESGGGLVQPGGSLKLSCAASGFTFNTYAMNWVRQASGKGLEWVGRIRSKSNFYATAYAASVKGRFTISRDDSKNTAYLQMNSLKTEDTAVYYCTRGKEYGSSYAMDYWGQGTLVTVSSASTKGPSVFPLAPSSKSTSGGTAALGCLVKDYFPEPVTVSWNSGALTSGVHTFPAVLQSSGLYSLSSVVTVPSSSLGTQTYICNVNHKPSNTKVDKKVEPKSCDKTHTCPPCPAPELVGGPSVFLLPPKPKDTLMISRTPEVTCVVVDVSHEDPEVKFNWYVDGVEVHNAKTKPPEEQYNSTLRVVSVLTVLHQDWLNGKEYKCKVSNKALPAPIEKTISKAKGQPREPQVYTLPPSRDELTKNQVSLTCLVKGFYPSDIAVEWESNGQPENNYKTTPLVLDSDGSFFLYSKLTVDKSRWQQGNVFSCSVMHEALHNHYTQKSLSLSPGK VL: DIVMTQSPLSLPVTPGEPASISCRSSKSLLHSNANTYLYWFLQKPGQSPQLLIYRMSNLASGVPDRFSGSGSGTDFTLKISRVEAEDVGVYYCMQHLEYPLTFGGGTKVELK |  |  | 4.05 | 8.69 | 5.6 | 11.4 | 8.18e+06 | 1.48e+07 | 3.94e+06 | 8.64e+06 | 0.136 | 44.2 | IC50, inhibition of CCL1 induced β-Arrestin recruitment, CHO-K1-human CCR8 β-Arrestin cells [4]: 1160 pM |
| TPP21360 (antibody, V domains shown) VH: EVQLLESGGGLVQPGGSLRLSCAASGFTFSSYGMHWVRQAPGKGLEWVSAINWNGGSTGYADSVKGRFTISRDNSKNTLYLQMNSLRAEDTAVYYCARGHHSGYDGRFFDYWGQGTLVTVSS VL: QSVLTQPPSVSGAPGQRVTISCTGSSSNIGAGYNVHWYQQLPGTAPKLLIYTNNRRPSGVPDRFSGSKSGTSASLAISGLRSEDEADYYCAAWDASLSGWVFGGGTKLTVLG | 553 | 461 |  |  |  |  |  |  |  |  |  |  |  |
| Hu149-18 (antibody, human IgG1, V domains shown, human IgG1) VH: EVQLVESGGGLVQPGGSLKLSCAASGFTFNTYAMNWVRQASGKGLEWVGRIRSKSNFYATAYAASVKGRFTISRDDSKNTAYLQMNSLKTEDTAVYYCTRGRDYGSSYAMDYWGQGTLVTVSS VL: DIVMTQSPLSLPVTPGEPASISCRSSKSLLHSNANTYLYWFLQKPGQSPQLLIYRMSNLASGVPDRFSGSGSGTDFTLKISRVEAEDVGVYYCMQHLRYPLTFGGGTKVELK |  |  |  |  |  |  |  |  |  |  |  |  | IC50, inhibition of CCL1 induced β-Arrestin recruitment [7]: 610 pM; Max Inhibition (%), CCL1 induced β-Arrestin recruitment [7]: 88.8%; EC50 [8]: 72.2 pM; Max MFI [8]: 694000 MFI; IC50 [9]: 61.4 pM; Max Inhibition (%) [9]: 101%; EC50 [10]: 82.6 pM; Max MFI [10]: 4.15e+06 MFI; Max MFI [11]: 351000 MFI |
| Hu149-9 mIgG2a (antibody, V domains shown) VH: EVQLVESGGGLVQPGGSLKLSCAASGFTFNTYAMNWVRQASGKGLEWVGRIRSKSNFYATAYAASVKGRFTISRDDSKNTAYLQMNSLKTEDTAVYYCTRGRDYGSSYAMDYWGQGTLVTVSS VL: DIVMTQSPLSLPVTPGEPASISCRSSKSLLHSNANTYLYWFLQKPGQSPQLLIYRMSNLASGVPDRFSGSGSGTDFTLKISRVEAEDVGVYYCMQHLEYPLTFGGGTKVELK |  |  |  |  |  |  |  |  |  |  |  |  | IC50, blocking of CCL1 induced cell migration [12]: 1920 pM; IC50, inhibition of CCL1 induced β-Arrestin recruitment [13]: 8640 pM |
| Hu348-4 mIgG2a (antibody, V domains shown) VH: EVQLVESGGGLVQPGGSLKLSCATSGFSFSNYRMHWLRQASGKGLEWVGVITVKSDNYGANYAASVKGRFTISRDDSKSSVYLQMNSLKTEDTAVYYCSSLGRVAYWGQGTLVTVSS VL: DIQMTQSPSSVSASVGDRVTITCKASQNVDTNVVWYQQKPGQSPKALIYSASSRYSGVPSRFSGSGSGTDFTLTISSLQPEDFATYYCQQHNSFPLTFGQGTKLEIK |  |  |  |  |  |  |  |  |  |  |  |  | IC50, inhibition of CCL1 induced β-Arrestin recruitment [13]: 860000 pM |
| Hu149-4-mIgG2a (antibody, V domains shown) VH: EVQLVESGGGLVQPGGSLKLSCAASGFTFNTYAMNWVRQASGKGLEWVGRIRSKSNFYATYYAASVKGRFTISRDDSKNTAYLQMNSLKTEDTAVYYCTRGRDYGSSYAMDYWGQGTLVTVSS VL: DIVMTQSPLSLPVTPGEPASISCRSSKSLLHSNANTYLYWFLQKPGQSPQLLIYRMSNLASGVPDRFSGSGSGTDFTLKISRVEAEDVGVYYCMQHLEYPLTFGGGTKVELK |  |  |  |  |  |  |  |  |  |  |  |  | IC50, blocking of CCL1 induced cell migration [12]: 2950 pM |
